Tested on: Escherichia coli TOP10
Assay: shrunken log2 fold change of peptide-encoding DNA abundance (4.5 h post-induction vs induction); higher = less antimicrobial activity (less host growth inhibition)
Conditions: time post-induction: 4.5 h; library: site-saturation at positions 5, 18, 19, 20
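Further: peptides expressed intracellularly from a pBAD plasmid library in pooled LB shake-flask culture, induced with 0.3% L-arabinose, DNA abundance read by NGS, three biological replicates, DESeq2 with apeglm shrinkage.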

Sequence	shrunken log2 fold change
RRIRVRPPRLPRPRPRPNDEPRP	-0.352
RRIRCRPPRLPRPRPRPNWWPRP	0.32
RRIRLRPPRLPRPRPRPRMNPRP	0.179
RRIRYRPPRLPRPRPRPLGFPRP	-0.662
RRIRKRPPRLPRPRPRPPEVPRP	0.741
RRIRKRPPRLPRPRPRPGCKPRP	0.189
RRIRIRPPRLPRPRPRPFHAPRP	-0.388
RRIRMRPPRLPRPRPRPDSPPRP	0.0492
RRIRSRPPRLPRPRPRPDYQPRP	-0.242
RRIRQRPPRLPRPRPRPNFPPRP	-0.00205
RRIRLRPPRLPRPRPRPIDWPRP	-0.00448
RRIRDRPPRLPRPRPRPNPTPRP	0.135
RRIRRRPPRLPRPRPRPQPMPRP	0.606
RRIRGRPPRLPRPRPRPEKHPRP	0.617
RRIRTRPPRLPRPRPRPFAWPRP	-0.0156
RRIRFRPPRLPRPRPRPINSPRP	-0.428
RRIRCRPPRLPRPRPRPVSAPRP	0.15
RRIRHRPPRLPRPRPRPMFFPRP	-0.347
RRIRPRPPRLPRPRPRPRPLPRP	0.627
RRIRQRPPRLPRPRPRPCADPRP	-0.116
RRIRDRPPRLPRPRPRPTHVPRP	0.244
RRIRMRPPRLPRPRPRPMIIPRP	-0.117
RRIRARPPRLPRPRPRPKIQPRP	0.26
RRIRCRPPRLPRPRPRPWCMPRP	-0.585
RRIRSRPPRLPRPRPRPGDYPRP	-0.0123

Sequence	shrunken log2 fold change
RRIRERPPRLPRPRPRPAKKPRP	0.00764
RRIRARPPRLPRPRPRPRMYPRP	0.0922
RRIRRRPPRLPRPRPRPYIEPRP	-0.338
RRIRQRPPRLPRPRPRPNYLPRP	-0.134
RRIRSRPPRLPRPRPRPTTYPRP	-0.359
RRIRCRPPRLPRPRPRPENVPRP	-0.0137
RRIRDRPPRLPRPRPRPEPEPRP	0.579
RRIRFRPPRLPRPRPRPKFTPRP	0.012
RRIRTRPPRLPRPRPRPGTVPRP	0.0209
RRIRMRPPRLPRPRPRPSAEPRP	2.7
RRIRSRPPRLPRPRPRPYLEPRP	-0.118
RRIRNRPPRLPRPRPRPVPAPRP	0.459
RRIRQRPPRLPRPRPRPYCEPRP	-0.327
RRIRIRPPRLPRPRPRPGDYPRP	-0.0189
RRIRDRPPRLPRPRPRPEAFPRP	0.119
RRIRMRPPRLPRPRPRPFAEPRP	0.625
RRIRFRPPRLPRPRPRPRTRPRP	0.244
RRIRYRPPRLPRPRPRPTKGPRP	-0.136
RRIRLRPPRLPRPRPRPQWCPRP	-0.282
RRIRCRPPRLPRPRPRPDLMPRP	-0.424
RRIRVRPPRLPRPRPRPMWQPRP	-0.0393
RRIRQRPPRLPRPRPRPYVFPRP	-0.648
RRIRSRPPRLPRPRPRPDEYPRP	-0.205
RRIRRRPPRLPRPRPRPMAVPRP	-0.165
RRIRCRPPRLPRPRPRPSMDPRP	-0.182

Sequence	shrunken log2 fold change
RRIRYRPPRLPRPRPRPAIAPRP	0.0565
RRIRTRPPRLPRPRPRPACWPRP	0.281
RRIRMRPPRLPRPRPRPVCVPRP	0.241
RRIRLRPPRLPRPRPRPFHRPRP	-0.246
RRIRMRPPRLPRPRPRPQWTPRP	0.0242
RRIRARPPRLPRPRPRPNLEPRP	0.0621
RRIRGRPPRLPRPRPRPDPMPRP	0.743
RRIRNRPPRLPRPRPRPNLHPRP	-0.728
RRIRDRPPRLPRPRPRPKNHPRP	-0.195
RRIRCRPPRLPRPRPRPSADPRP	0.0289
RRIRARPPRLPRPRPRPCYHPRP	-0.0657
RRIRNRPPRLPRPRPRPICNPRP	-0.203
RRIRMRPPRLPRPRPRPELTPRP	3.52
RRIRDRPPRLPRPRPRPIAKPRP	0.0483
RRIRLRPPRLPRPRPRPFPMPRP	-0.312
RRIRYRPPRLPRPRPRPQASPRP	-0.0259
RRIRKRPPRLPRPRPRPFYYPRP	-0.587
RRIRARPPRLPRPRPRPKLIPRP	0.128
RRIRWRPPRLPRPRPRPREAPRP	0.185
RRIRCRPPRLPRPRPRPRTEPRP	0.0022
RRIRPRPPRLPRPRPRPSVVPRP	-0.162
RRIRNRPPRLPRPRPRPCEHPRP	-0.162
RRIRLRPPRLPRPRPRPYDHPRP	-0.165
RRIRMRPPRLPRPRPRPTGVPRP	0.224
RRIRYRPPRLPRPRPRPMHDPRP	-0.598

Sequence	shrunken log2 fold change
RRIRNRPPRLPRPRPRPMHMPRP	-0.00926
RRIRYRPPRLPRPRPRPMCSPRP	-0.116
RRIRVRPPRLPRPRPRPMHMPRP	-0.164
RRIRRRPPRLPRPRPRPYKLPRP	-0.669
RRIRYRPPRLPRPRPRPCVRPRP	0.0523
RRIRERPPRLPRPRPRPHPTPRP	0.0575
RRIRNRPPRLPRPRPRPNTGPRP	0.0312
RRIRNRPPRLPRPRPRPHEEPRP	-0.0188
RRIRQRPPRLPRPRPRPHYFPRP	-0.239
RRIRCRPPRLPRPRPRPESDPRP	0.242
RRIRHRPPRLPRPRPRPEWAPRP	-0.0848
RRIRMRPPRLPRPRPRPPVNPRP	0.648
RRIRCRPPRLPRPRPRPPLGPRP	0.807
RRIRKRPPRLPRPRPRPQLAPRP	0.898
RRIRFRPPRLPRPRPRPLKFPRP	-0.544
RRIRFRPPRLPRPRPRPEQIPRP	0.131
RRIRKRPPRLPRPRPRPGLIPRP	0.13
RRIRWRPPRLPRPRPRPDYFPRP	-0.0991
RRIRRRPPRLPRPRPRPYEHPRP	-0.0324
RRIRQRPPRLPRPRPRPKGKPRP	-0.155
RRIRDRPPRLPRPRPRPDSDPRP	0.0999
RRIRYRPPRLPRPRPRPAFGPRP	-0.21
RRIRTRPPRLPRPRPRPSEYPRP	-0.0517
RRIRIRPPRLPRPRPRPTSMPRP	-0.0835
RRIRIRPPRLPRPRPRPMKHPRP	-0.224

Sequence	shrunken log2 fold change
RRIRMRPPRLPRPRPRPYLSPRP	-0.0214
RRIRMRPPRLPRPRPRPHFMPRP	-0.127
RRIRQRPPRLPRPRPRPPRNPRP	0.765
RRIRCRPPRLPRPRPRPVQRPRP	0.123
RRIRMRPPRLPRPRPRPYCSPRP	-0.122
RRIRYRPPRLPRPRPRPLDPPRP	-0.307
RRIRNRPPRLPRPRPRPDSFPRP	-0.0232
RRIRMRPPRLPRPRPRPSQQPRP	0.463
RRIRDRPPRLPRPRPRPGDKPRP	0.088
RRIRGRPPRLPRPRPRPRFKPRP	0.449
RRIRFRPPRLPRPRPRPLNFPRP	-0.452
RRIRHRPPRLPRPRPRPRMNPRP	-0.197
RRIRSRPPRLPRPRPRPRTPPRP	0.502
RRIRQRPPRLPRPRPRPFFQPRP	-0.0889
RRIRQRPPRLPRPRPRPMGQPRP	0.0628
RRIRRRPPRLPRPRPRPWGAPRP	0.483
RRIRHRPPRLPRPRPRPAMLPRP	-0.168
RRIRPRPPRLPRPRPRPFDWPRP	0.171
RRIRWRPPRLPRPRPRPLKPPRP	0.0915
RRIRARPPRLPRPRPRPNAQPRP	0.158
RRIRFRPPRLPRPRPRPHQSPRP	-0.114
RRIRYRPPRLPRPRPRPNKAPRP	-0.0417
RRIRQRPPRLPRPRPRPPSMPRP	-0.234
RRIRTRPPRLPRPRPRPRADPRP	0.158
RRIRTRPPRLPRPRPRPVKQPRP	-0.00945
